From patent US20250154283A1 (published 2025)
Where a chain is given by its changes, count along the chain named.

B1: Lib1_P1_G3 OA (antibody, human IgG4 S228P, kappa, F234A L235A)
heavy: QVQLVQSGAEVKKPGASVKVSCKVSGYTSRQYIHWVRQAPGKGLEWMGWVTPIFGTTNYAQKFQGRVTMTEDTSTDTAYMELSSLKSEDTAVYYCAREWTGTTAFDIWGQGTLVTVSSASTKGPSVFPLAPCSRSTSESTAALGCLVKDYFPEPVTVSWNSGALTSGVHTFPAVLQSSGLYSLSSVVTVPSSSLGTKTYTCNVDHKPSNTKVDKRVESKYGPPCPPCPAPEAAGGPSVFLFPPKPKDTLMISRTPEVTCVVVDVSQEDPEVQFNWYVDGVEVHNAKTKPREEQFNSTYRVVSVLTVLHQDWLNGKEYKCKVSNKGLPSSIEKTISKAKGQPREPQVYTLPPSQEEMTKNQVSLSCAVKGFYPSDIAVEWESNGQPENNYKTTPPVLDSDGSFFLVSRLTVDKSRWQEGNVFSCSVMHEALHNHYTQKSLSLSLG
chain: ESKYGPPCPPCPAPEAAGGPSVFLFPPKPKDTLMISRTPEVTCVVVDVSQEDPEVQFNWYVDGVEVHNAKTKPREEQFNSTYRVVSVLTVLHQDWLNGKEYKCKVSNKGLPSSIEKTISKAKGQPREPQVYTLPPSQEEMTKNQVSLWCLVKGFYPSDIAVEWESNGQPENNYKTTPPVLDSDGSFFLYSRLTVDKSRWQEGNVFSCSVMHEALHNHYTQKSLSLSLG
light: DIQMTQSPSSVSASVGDRVTITCRASQDIGHYLAWYQQKPGKAPKLLIYAASNRASGVPSRFSGSGSGTDFTLTISSLQPEDFANYYCQQGYSAPYGFGGGTKVEIKRTVAAPSVFIFPPSDEQLKSGTASVVCLLNNFYPREAKVQWKVDNALQSGNSQESVTEQDSKDSTYSLSSTLTLSKADYEKHKVYACEVTHQGLSSPVTKSFNRGEC
B2: Lib1_P1_A9 OA (antibody, human IgG4 S228P, kappa, F234A L235A)
heavy: QVQLVQSGAEVKKPGASVKVSCKVSGDTLSSYGIHWVRQAPGKGLEWMGGSIPSFGTAIYAQKFQGRVTMTEDTSTDTAYMELSSLKSEDTAVYYCTSEGPWLPFFSFDYWGQGTLVTVSSASTKGPSVFPLAPCSRSTSESTAALGCLVKDYFPEPVTVSWNSGALTSGVHTFPAVLQSSGLYSLSSVVTVPSSSLGTKTYTCNVDHKPSNTKVDKRVESKYGPPCPPCPAPEAAGGPSVFLFPPKPKDTLMISRTPEVTCVVVDVSQEDPEVQFNWYVDGVEVHNAKTKPREEQFNSTYRVVSVLTVLHQDWLNGKEYKCKVSNKGLPSSIEKTISKAKGQPREPQVYTLPPSQEEMTKNQVSLSCAVKGFYPSDIAVEWESNGQPENNYKTTPPVLDSDGSFFLVSRLTVDKSRWQEGNVFSCSVMHEALHNHYTQKSLSLSLG
chain: B1 chain
light: DIQMTQSPSSVSASVGDRVTITCRASQGISRNLAWYQQKPGKAPKLLIYKASSLASGVPSRFSGSGSGTDFTLTISSLQPEDFANYYCQQSFSTPVTFGGGTKVEIKRTVAAPSVFIFPPSDEQLKSGTASVVCLLNNFYPREAKVQWKVDNALQSGNSQESVTEQDSKDSTYSLSSTLTLSKADYEKHKVYACEVTHQGLSSPVTKSFNRGEC
notes: also called monovalent (one-arm) Lib1_P1_A9
B3: Lib1_P1_G3 OA (antibody, human IgG4 S228P, kappa, F234A L235A)
heavy: B1 heavy
chain: B1 chain
light: B1 light
notes: monovalent one-arm human IgG4
B4: Lib1_P1_A6 OA (antibody, human IgG4 S228P, kappa, F234A L235A)
heavy: QVQLVQSGAEVKKPGASVKVSCKVSGSTFSNYAIHWVRQAPGKGLEWMGGIVPLSGTAIYAQKFQGRVTMTEDTSTDTAYMELSSLKSEDTAVYYCARDQGESSGWYAIYYGMDVWGQGTTVTVSSASTKGPSVFPLAPCSRSTSESTAALGCLVKDYFPEPVTVSWNSGALTSGVHTFPAVLQSSGLYSLSSVVTVPSSSLGTKTYTCNVDHKPSNTKVDKRVESKYGPPCPPCPAPEAAGGPSVFLFPPKPKDTLMISRTPEVTCVVVDVSQEDPEVQFNWYVDGVEVHNAKTKPREEQFNSTYRVVSVLTVLHQDWLNGKEYKCKVSNKGLPSSIEKTISKAKGQPREPQVYTLPPSQEEMTKNQVSLSCAVKGFYPSDIAVEWESNGQPENNYKTTPPVLDSDGSFFLVSRLTVDKSRWQEGNVFSCSVMHEALHNHYTQKSLSLSLG
chain: B1 chain
light: DIQMTQSPSSVSASVGDRVTITCRASQGIGTWLAWYQQKPGKAPKLLIYGSSSRASGVPSRFSGSGSGTDFTLTISSLQPEDFANYYCQQSYGKPTFGGGTKVEIKRTVAAPSVFIFPPSDEQLKSGTASVVCLLNNFYPREAKVQWKVDNALQSGNSQESVTEQDSKDSTYSLSSTLTLSKADYEKHKVYACEVTHQGLSSPVTKSFNRGEC
notes: monovalent one-arm human IgG4; also called monovalent (one-arm) Lib1_P1_A6

What was measured:
[1] = target: T1, His-StrepTagII-HRV3C-human VWF-CK-HA-tag (human); assay: solution-phase equilibrium binding, free antibody by ELISA; apparent Kd; pH 5.5; mean ± SD, n=2
T1 construct: it begins with the VWF signal peptide, whose limits were marked only by underlining that is lost in the text, so it was not cut off; The CK domain forms disulfide-linked homodimers (CK dimer); also called recombinant human CK domain; Human CK
T1 chain: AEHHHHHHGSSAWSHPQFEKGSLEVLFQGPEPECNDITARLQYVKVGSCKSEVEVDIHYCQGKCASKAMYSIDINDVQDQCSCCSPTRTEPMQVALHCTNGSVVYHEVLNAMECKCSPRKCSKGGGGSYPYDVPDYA
Description: (§1) Following incubation for 30 min at room temperature to establish equilibrium, unbound antibody was quantified by ELISA using the immobilized human CK domain for capture and HRP-conjugated goat anti-human IgG Fc antibody for detection.
(§2) Following a single wash of the plate with 200 μL of wash buffer (TBS containing 0.05% (v/v) Tween-20 and 5 mM CaCl₂), the plate was blocked by incubation with 200 μL blocking buffer (TBS containing 5 mM CaCl₂ and 1% (w/w) BSA) for 1 hour at room temperature. […] Incubation lasted 3 min and was followed by 5-min incubation with 100 μL HRP-conjugated goat anti-human IgG Fc antibody for detection (1 mg/mL stock diluted 1:20,000 in blocking buffer). Before and after addition of a detection antibody, the plate was washed 5 times with 200 μL wash buffer. A chromogenic horseradish peroxidase (HRP) substrate (100 μL) was then added and following color development for 3 min, 100 μL ELISA stop solution were added to quench the reaction. Absorbance was measured at 450 nm with subtraction of the absorbance at 620 nm.
(§3) The standard curve prepared with free antibody was fitted to a Sigmoidal four-parameter logistic (4PL) model.

human plasma-derived VWF = target: T2, human plasma-derived VWF (human, UniProt P04275 764-2813); assay: solution-phase equilibrium binding, free antibody by ELISA; apparent Kd; pH 7.4; mean ± SD, n=2
T2 construct: multimeric; also called pd-VWF; Human VWF
Description: as §1, §2, §3

[2] = target: T1, His-StrepTagII-HRV3C-human VWF-CK-HA-tag; assay: as above
Description: as §1, §2, §3

[3] = target: T3, His-StrepTagII-HRV3C-cyno VWF-CK-HA-tag (cynomolgus monkey); assay: as above
T3 construct: it begins with the VWF signal peptide, whose limits were marked only by underlining that is lost in the text, so it was not cut off; The CK domain forms disulfide-linked homodimers; also called recombinant cyno CK domain; Cyno CK
T3 chain: T1 chain with N35S, A95P, E113Q, K115E
Description: as §1, §2, §3

VWF in human plasma [4] = target: T4, VWF in human plasma (human, UniProt P04275 764-2813); assay: VWF:FVIIIB enzyme immunoassay; human plasma (5 donors) 17 h 37 °C with 200 nM antibody; FVIII bound to captured VWF relative to untreated plasma; ligand FVIII
T4 construct: Endogenous VWF in donor plasma, not purified; multimeric; also called VWF in plasma; VWF in platelet rich plasma

VWF in human plasma [5] = target: T4, VWF in human plasma; assay: VWF:FVIIIB enzyme immunoassay; human plasma (5 donors) 17 h 37 °C with 600 nM antibody; FVIII bound to captured VWF relative to untreated plasma; ligand FVIII
VWF in human plasma [6] = target: T4, VWF in human plasma; assay: collagen type III binding ELISA; human plasma (5 donors) 17 h 37 °C with 600 nM antibody; VWF bound to collagen relative to untreated plasma; ligand collagen type III
Description: Following incubation, collagen binding was determined relative to untreated plasma.

VWF in human plasma [7] = target: T4, VWF in human plasma; assay: flow cytometry, FITC anti-VWF on platelets; human PRP (2 donors), 0.5 mg/ml ristocetin, 600 nM antibody; relative to the same plasma without antibody; receptor platelet gp1b
Description: PRP was prepared by centrifuging the blood at 250 g for 15 min. […] Sample analysis was performed on a flow cytometer. Using forward (FSC) and sideward (SSC) scatter pattern, a gate was placed on the platelets.

[8] = target: T5, His-StrepTagII-HRV3C-cyno VWF-CK-HA-tag (cynomolgus monkey); assay: solution-phase equilibrium binding, unbound antibody by ELISA
T5 construct: also called recombinant cyno CK domain; cyno CK
T5 chain: T1 chain with N35S, A95P, E113Q, K115E

[9] = target: T6, human plasma-derived von Willebrand Factor (VWF) (human, UniProt P04275 764-2813); assay: VWF:FVIIIB enzyme immunoassay, FVIII binding capacity of plasma VWF after incubation with 200 or 600 nM antibody; FVIII as the partner tested
T6 construct: also called pd-VWF; human plasma-derived VWF

| Binder | Kd [1] | Kd (human plasma-derived VWF) | Kd [2] | Kd [3] | VWF:FVIII level (% of control) (VWF in human plasma [4]) | VWF:FVIII level (% of control) (VWF in human plasma [5]) | Collagen binding (% control) (VWF in human plasma [6]) | Platelet binding (% control) (VWF in human plasma [7]) | fold change in Kd, cyno CK against human CK [8] | VWF:FVIII level (% of untreated donor-matched plasma) [9] |
| --- | --- | --- | --- | --- | --- | --- | --- | --- | --- | --- |
| B1 | 32.3 nM | 5.3 nM | 4.3 nM | 11 nM | 84.5 % of control | 85.8 % of control | 108 % control | 101 % control | – | – |
| B2 | – | – | – | – | – | – | – | – | < 2 fold | > 80% |
| B3 | – | – | – | – | – | – | – | – | < 2 fold | > 80% |
| B4 | – | – | – | – | – | – | – | – | < 2 fold | > 80% |
